Test results published in the supplement of paper PMC9112550, “Optimization of the antimicrobial peptide Bac7 by deep mutational scanning” (BMC Biology, 2022).

system: Escherichia coli TOP10; assay: shrunken log2 fold change of peptide-encoding DNA abundance (4.5 h post-induction vs induction); higher = less antimicrobial activity (less host growth inhibition); details: time post-induction: 4.5 h; library: site-saturation at positions 5, 18, 19, 20
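Note: peptides expressed intracellularly from a pBAD plasmid library in pooled LB shake-flask culture, induced with 0.3% L-arabinose, DNA abundance read by NGS, three biological replicates, DESeq2 with apeglm shrinkage.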

Sequence	shrunken log2 fold change
RRIRFRPPRLPRPRPRPQACPRP	-0.0456
RRIRMRPPRLPRPRPRPHPCPRP	0.046
RRIRPRPPRLPRPRPRPHAPPRP	0.082
RRIRIRPPRLPRPRPRPWVAPRP	-0.00986
RRIRMRPPRLPRPRPRPRVPPRP	0.83
RRIRERPPRLPRPRPRPGDIPRP	-0.072
RRIRARPPRLPRPRPRPFQVPRP	0.0694
RRIRCRPPRLPRPRPRPFALPRP	-0.33
RRIRERPPRLPRPRPRPYHAPRP	0.00489
RRIRKRPPRLPRPRPRPTTYPRP	0.00371
RRIRRRPPRLPRPRPRPFGGPRP	0.0433
RRIRWRPPRLPRPRPRPGLVPRP	0.449
RRIRQRPPRLPRPRPRPLRFPRP	-0.041
RRIRGRPPRLPRPRPRPKAPPRP	0.855
RRIRKRPPRLPRPRPRPQYQPRP	-0.11
RRIRCRPPRLPRPRPRPSWGPRP	0.258
RRIRNRPPRLPRPRPRPDEHPRP	-0.415
RRIRPRPPRLPRPRPRPSIRPRP	-0.306
RRIRNRPPRLPRPRPRPCRVPRP	-0.0128
RRIRMRPPRLPRPRPRPQMIPRP	-0.0999
RRIRYRPPRLPRPRPRPAAWPRP	0.00758
RRIRLRPPRLPRPRPRPMMFPRP	-0.269
RRIRKRPPRLPRPRPRPNVKPRP	0.0115

Sequence	shrunken log2 fold change
RRIRARPPRLPRPRPRPNAHPRP	0.437
RRIRMRPPRLPRPRPRPWAQPRP	0.35
RRIRDRPPRLPRPRPRPCMYPRP	0.126
RRIRTRPPRLPRPRPRPMGMPRP	-0.12
RRIRARPPRLPRPRPRPGIIPRP	0.106
RRIRRRPPRLPRPRPRPHGMPRP	0.0957
RRIRGRPPRLPRPRPRPFWHPRP	0.297
RRIRTRPPRLPRPRPRPPTPPRP	0.368
RRIRWRPPRLPRPRPRPSPWPRP	0.0588
RRIRHRPPRLPRPRPRPHMNPRP	-0.491
RRIRSRPPRLPRPRPRPFMPPRP	-0.149
RRIRPRPPRLPRPRPRPQKHPRP	0.865
RRIRTRPPRLPRPRPRPCQLPRP	-0.161
RRIRTRPPRLPRPRPRPWPAPRP	0.61
RRIRMRPPRLPRPRPRPLIDPRP	0.356
RRIRTRPPRLPRPRPRPLWWPRP	0.546
RRIRWRPPRLPRPRPRPVDQPRP	0.168
RRIRNRPPRLPRPRPRPTLFPRP	0.0912
RRIRMRPPRLPRPRPRPEEKPRP	2.64
RRIRQRPPRLPRPRPRPISDPRP	0.0109
RRIRCRPPRLPRPRPRPLSNPRP	0.504
RRIRLRPPRLPRPRPRPNGIPRP	-0.00731
RRIRSRPPRLPRPRPRPLYGPRP	-0.565

Sequence	shrunken log2 fold change
RRIRERPPRLPRPRPRPIEMPRP	-0.0653
RRIRMRPPRLPRPRPRPMYTPRP	-0.71
RRIRMRPPRLPRPRPRPYIFPRP	-0.265
RRIRGRPPRLPRPRPRPPDLPRP	0.791
RRIRLRPPRLPRPRPRPAPYPRP	0.0426
RRIRNRPPRLPRPRPRPQQCPRP	-0.0851
RRIRPRPPRLPRPRPRPGSAPRP	0.18
RRIRCRPPRLPRPRPRPVTGPRP	-0.0982
RRIRLRPPRLPRPRPRPGRTPRP	0.292
RRIRIRPPRLPRPRPRPLSMPRP	-0.395
RRIRLRPPRLPRPRPRPYHAPRP	-0.186
RRIRNRPPRLPRPRPRPKTCPRP	0.0411
RRIRMRPPRLPRPRPRPLTIPRP	0.19
RRIRSRPPRLPRPRPRPIDEPRP	0.0325
RRIRSRPPRLPRPRPRPHSLPRP	0.0616
RRIRDRPPRLPRPRPRPWKEPRP	-0.0075
RRIRSRPPRLPRPRPRPAAEPRP	0.466
RRIRSRPPRLPRPRPRPHGPPRP	-0.0864
RRIRMRPPRLPRPRPRPEDVPRP	-0.0102
RRIRNRPPRLPRPRPRPMAEPRP	0.0284
RRIRGRPPRLPRPRPRPVPVPRP	0.629
RRIRYRPPRLPRPRPRPPRMPRP	-0.215
RRIRLRPPRLPRPRPRPPYCPRP	-0.0882

Sequence	shrunken log2 fold change
RRIRKRPPRLPRPRPRPHGTPRP	-0.0973
RRIRPRPPRLPRPRPRPPQTPRP	0.362
RRIRARPPRLPRPRPRPGWYPRP	0.437
RRIRDRPPRLPRPRPRPKRCPRP	0.0311
RRIRTRPPRLPRPRPRPVDVPRP	-0.236
RRIRTRPPRLPRPRPRPDVVPRP	-0.106
RRIRVRPPRLPRPRPRPQLAPRP	0.402
RRIRHRPPRLPRPRPRPTPCPRP	0.00473
RRIRKRPPRLPRPRPRPIPVPRP	-0.193
RRIRIRPPRLPRPRPRPGELPRP	-0.0665
RRIRVRPPRLPRPRPRPWDIPRP	-0.235
RRIRVRPPRLPRPRPRPPIQPRP	-0.245
RRIRCRPPRLPRPRPRPQSFPRP	-0.253
RRIRQRPPRLPRPRPRPVQFPRP	-0.0919
RRIRCRPPRLPRPRPRPVVRPRP	-0.356
RRIRDRPPRLPRPRPRPFDLPRP	-0.312
RRIRHRPPRLPRPRPRPLDNPRP	-0.515
RRIRFRPPRLPRPRPRPLIFPRP	-0.666
RRIRWRPPRLPRPRPRPTTVPRP	0.11
RRIRVRPPRLPRPRPRPQCYPRP	-0.189
RRIRQRPPRLPRPRPRPAELPRP	-0.00135
RRIRDRPPRLPRPRPRPRFMPRP	-0.0192
